Assay results from the supplement of paper PMC12042874.
± gives the uncertainty stated by the source.

Assay: amyloid nucleation score (Sup35N fusion, yeast selection) (log enrichment); library NNK3; higher = more nucleation; inactive = no reads after selection
Method in brief: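 Growth for 7 days at 30°C on medium lacking adenine and uracil followed a 24-hour induction with 100 μM copper sulfate of psi-negative yeast expressing peptides of 20 random codons fused to Sup35N. Input and output plasmid inserts were sequenced with Illumina, and sequences with under 100 input reads were excluded. Nucleation score is the DiMSum log enrichment of output over input reads, centred on the mode score of non-aggregating sequences.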
With TYKHTSWETLDDVFSDGSSS the amyloid nucleation score was “inactive”. With RTEKMGRDTKRYCVPHINFG the amyloid nucleation score was “inactive”. In the case of HWGWVTSIESVVRRFCNNFC, the amyloid nucleation score is reported as “inactive”. With NYPSYSMHNDIFYAFNFSIS the amyloid nucleation score was 2.17 ± 0.084. For KYDSY, the amyloid nucleation score was “inactive”. With ALGCPGSQNLYFGSGSPAWS the amyloid nucleation score was “inactive”. For VMAELVSVKVAQVIVR, the amyloid nucleation score was “inactive”. With NFLKSG the amyloid nucleation score was “inactive”. For LRNQITQIDDT, the amyloid nucleation score was “inactive”. With SQTLYLGARVNRMRYVFSAC the amyloid nucleation score was “inactive”. With DMGLYLFFIYLCGVRDLLST the amyloid nucleation score was “inactive”. Work on RMILNMCCTITDRKCHSVSD yielded an amyloid nucleation score of 2.39 ± 0.055. Substance ACRYDLSKKPNASWARAEG has an amyloid nucleation score of -0.272 ± 0.37. With FSVHRGLLFITQGSDVAEHV the amyloid nucleation score was “inactive”. For YCMGYSMHIV, the amyloid nucleation score was “inactive”. With NHLIQIG the amyloid nucleation score was “inactive”. With KFGSLVKTYFRDMFRSILCW the amyloid nucleation score was “inactive”. For DGVALFNVVRFVVGIDILLI, the amyloid nucleation score was “inactive”. In the case of HVTSVMIFIIASIMYVEIKY, the amyloid nucleation score is reported as 0.339 ± 0.34. With SSARRKNLRYEGVLRTEARV the amyloid nucleation score was “inactive”. For CSKNRQSELRALGSYI, the amyloid nucleation score was “inactive”. In the case of RYGSNTSLVANCAGPRPGLV, the amyloid nucleation score is reported as “inactive”. For IYCWCSVIDTGRAARLRVIK, the amyloid nucleation score was “inactive”. In the case of LPNSNTGKKCYGMNHSKENC, the amyloid nucleation score is reported as “inactive”. For VMLNNCRGYLANCDSCSW, the amyloid nucleation score was “inactive”. For YSVIYDRSYRIV, the amyloid nucleation score was “inactive”. With CLHEDCRMTADSLPSLRKDR the amyloid nucleation score was “inactive”. With VVGFMYYARFLPSDFVSINA the amyloid nucleation score was “inactive”. For VRFYVLSPKDFWAFLKILFR, the amyloid nucleation score was “inactive”. In the case of TTMWTIKENFTWIVITVDSI, the amyloid nucleation score is reported as “inactive”. For TAESTDCG, the amyloid nucleation score was “inactive”. In the case of HITGNGPHLRYCARQVLWSL, the amyloid nucleation score is reported as “inactive”. For HWCYRSFMTPAPPNLLPQPQ, the amyloid nucleation score was “inactive”. In the case of QEYSGHATSGAHMRWAYSVE, the amyloid nucleation score is reported as “inactive”. With KSFLLPCFCRTLWTWMHRHA the amyloid nucleation score was 1.11 ± 0.14. For WVVWEM, the amyloid nucleation score was “inactive”. With KWMGKNTKSG the amyloid nucleation score was “inactive”. For GTTLHYLSRREYGFTGRILF, the amyloid nucleation score was “inactive”. In the case of RTPLYAVLWVEGGLLPYLL, the amyloid nucleation score is reported as “inactive”. For TISLGE, the amyloid nucleation score was “inactive”. Substance SWSARVKVLLVVGCNVSVFC has an amyloid nucleation score of 0.842 ± 0.2. For CLVNWPMWENPWSPHFGSNY, the amyloid nucleation score was “inactive”. For VICGYLYVYVYHGFVGSLLG, the amyloid nucleation score was “inactive”. With LTSLVLVLLLCSTRNGNGTC the amyloid nucleation score was 1.55 ± 0.085. For HMKPSMLYITVCRWFKFY, the amyloid nucleation score was “inactive”. With LMFGVIMPITDDMFYGQESV the amyloid nucleation score was “inactive”. Work on FDNFADNRLNKVSYKYQT yielded an amyloid nucleation score of 1.27 ± 0.12. For RVIRNQSVRTPP, the amyloid nucleation score was “inactive”. For RSEVAGFHLE, the amyloid nucleation score was -0.807 ± 1.1. In the case of YIFFMDLNYLSSNSITVRAV, the amyloid nucleation score is reported as 1.53 ± 0.074. For ILYLITFAELCWKSRHWHLG, the amyloid nucleation score was “inactive”. For DAIRQTSHMKLRSSYMQARR, the amyloid nucleation score was “inactive”. With SQVVDW the amyloid nucleation score was “inactive”. In the case of STYLF, the amyloid nucleation score is reported as “inactive”. In the case of GVDDSLLKMRETCSRFGLTV, the amyloid nucleation score is reported as “inactive”. With MLFRLRSAYHTASDVDANDD the amyloid nucleation score was “inactive”. For ALVSK, the amyloid nucleation score was “inactive”. In the case of FIIAWWCNVSVDKTSERHYV, the amyloid nucleation score is reported as 1.55 ± 0.079. In the case of GISPQC, the amyloid nucleation score is reported as “inactive”. With VSVLIHGKRSFGMWCSMHAY the amyloid nucleation score was “inactive”. In the case of LGSWLWR, the amyloid nucleation score is reported as “inactive”. In the case of NAGYSNRCQIGYICSVRACK, the amyloid nucleation score is reported as “inactive”. For KLLLYFKYLMPVELISWSTL, the amyloid nucleation score was “inactive”. For TLHVCIVLSPGRW, the amyloid nucleation score was “inactive”. With VVDDIWRPIDL the amyloid nucleation score was “inactive”. In the case of LYLKYLELEILRPYGAFICH, the amyloid nucleation score is reported as “inactive”. In the case of CFYVSLCGV, the amyloid nucleation score is reported as 0.259 ± 0.49. For SRELNYVVAWIL, the amyloid nucleation score was “inactive”. In the case of YSVPCSWWTLQLGILPLSRR, the amyloid nucleation score is reported as “inactive”. For DSFSTDCVFYEIMCSEVRLA, the amyloid nucleation score was “inactive”. For SENSRRSLSAYFLQYGLWFW, the amyloid nucleation score was “inactive”. In the case of HNSCGGY, the amyloid nucleation score is reported as “inactive”. In the case of KDGFYNVPLVEPHMRSSSTP, the amyloid nucleation score is reported as “inactive”. With IQLAYIPEMALPTSWARVSG the amyloid nucleation score was “inactive”. In the case of SGFDYV, the amyloid nucleation score is reported as “inactive”. For YELMIFVTELALLDEILPEQ, the amyloid nucleation score was “inactive”. With DLGHQMVVRRHVLFLICCCN the amyloid nucleation score was “inactive”. With KYIIWLLDDSDLI the amyloid nucleation score was “inactive”. In the case of FVTFGYQWYRRVAGALGCLE, the amyloid nucleation score is reported as 0.37 ± 0.57. In the case of DNYMRILGLSYPGDFISNFW, the amyloid nucleation score is reported as “inactive”.
